The results in this text go back to IntAct's records for PubMed 15117939.

B1: Mannan-binding lectin serine protease 2 (Homo sapiens), O00187-2 (parent)
chain: MRLLTLLGLLCGSVATPLGPKWPEPVFGRLASPGFPGEYANDQERRWTLTAPPGYRLRLYFTHFDLELSHLCEYDFVKLSSGAKVLATLCGQESTDTERAPGKDTFYSLGSSLDITFRSDYSNEKPFTGFEAFYAAEDIDECQVAPGEAPTCDHHCHNHLGGFYCSCRAGYVLHRNKRTCSEQSL

Assay [1] covers variants of B1. The conditions noted are these: with mbl2_human MBL2, P11226.
Variants of B1 are the subject of assay [2]. The conditions noted are these: with fcn2_human FCN2, Q15485.
fcn2_human FCN2, Q15485, sequence (Q15485 whole entry): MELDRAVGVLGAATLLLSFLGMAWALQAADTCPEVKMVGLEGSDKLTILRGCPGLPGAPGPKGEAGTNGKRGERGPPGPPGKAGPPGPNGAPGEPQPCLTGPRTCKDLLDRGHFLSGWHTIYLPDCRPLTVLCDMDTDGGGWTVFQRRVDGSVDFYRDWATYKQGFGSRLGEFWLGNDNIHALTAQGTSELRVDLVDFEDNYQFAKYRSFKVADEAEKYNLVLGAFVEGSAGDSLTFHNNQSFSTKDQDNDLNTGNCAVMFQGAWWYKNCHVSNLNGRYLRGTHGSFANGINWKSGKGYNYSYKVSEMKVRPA

mbl2_human MBL2, P11226, sequence (P11226 whole entry): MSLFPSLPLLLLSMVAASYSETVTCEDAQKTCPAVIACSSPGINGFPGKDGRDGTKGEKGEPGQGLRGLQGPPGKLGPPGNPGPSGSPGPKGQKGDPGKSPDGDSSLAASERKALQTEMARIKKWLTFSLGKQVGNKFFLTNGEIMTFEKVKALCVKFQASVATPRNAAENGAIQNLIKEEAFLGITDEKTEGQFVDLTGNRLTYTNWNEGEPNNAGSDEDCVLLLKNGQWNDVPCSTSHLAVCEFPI

Take MRLLTLLGLLCGSVATPLGPKWPEPVFGRLASPGFPGEYANDQERRWTLTAPPGYRLRLYFTHFDLELSALCEYDFVKLSSGAKVLATLCGQESTDTERAPGKDTFYSLGSSLDITFRSDYSNEKPFTGFEAFYAAEDIDECQVAPGEAPTCDHHCHNHLGGFYCSCRAGYVLHRNKRTCSEQSL: the “effect of a mutation on the interaction” value in assay [1] and in assay [2] was “with no effect” each time.

As to MRLLTLLGLLCGSVATPLGPKWPEPVFGRLASPGFPGEYANDQERRWTLTAPPGYRLRLYFTHFDLELSHLCEYDFVKLSSGAKVLATLCGQESTNTERAPGKDTFYSLGSSLDITFRSDYSNEKPFTGFEAFYAAEDIDECQVAPGEAPTCDHHCHNHLGGFYCSCRAGYVLHRNKRTCSEQSL, the “effect of a mutation on the interaction” value in assay [1] and in assay [2] was “with no effect” throughout.

Take MRLLTLLGLLCGSVATPLGPKWPEPVFGRLASPGFPGEYANDQERRWTLTAPPGYALRLYFTHFDLELSHLCEYDFVKLSSGAKVLATLCGQESTDTERAPGKDTFYSLGSSLDITFRSDYSNEKPFTGFEAFYAAEDIDECQVAPGEAPTCDHHCHNHLGGFYCSCRAGYVLHRNKRTCSEQSL: the “effect of a mutation on the interaction” value in assay [1] and in assay [2] was “with no effect” in each case.

With MRLLTLLGLLCGSVATPLGPKWPEPVFGRLASPGFPGEYANDQERRWTLTAPPGYRLRLYFTHFDLELSHLCEYDFVKLSSGAKVLATLCGQESTDTERAPGKDTFYSLGSSLDITFRSDYSNEKPFTGFEAFYAAEDIDECQVAPGAAPTCDHHCHNHLGGFYCSCRAGYVLHRNKRTCSEQSL, the “effect of a mutation on the interaction” value in assay [1] and in assay [2] was “decreasing interaction strength” each time.

For the variant MRLLTLLGLLCGSVATPLGPKWPEPVFGRLASPGFPGEYANDQERRWTLTAPPGYRLRLYFTHFDLELSHLCEYAFVKLSSGAKVLATLCGQESTDTERAPGKDTFYSLGSSLDITFRSDYSNEKPFTGFEAFYAAEDIDECQVAPGEAPTCDHHCHNHLGGFYCSCRAGYVLHRNKRTCSEQSL, the “effect of a mutation on the interaction” value in assay [1] and in assay [2] was “decreasing interaction strength” throughout.

In the case of MRLLTLLGLLCGSVATPLGPKWPEPVFGRLASPGFPGEYANDQERRWTLTAPPGYRLRLYFTHFDLELSHLCAYDFVKLSSGAKVLATLCGQESTDTERAPGKDTFYSLGSSLDITFRSDYSNEKPFTGFEAFYAAEDIDECQVAPGEAPTCDHHCHNHLGGFYCSCRAGYVLHRNKRTCSEQSL, the “effect of a mutation on the interaction” value in assay [1] and in assay [2] was “with no effect” each time.

Consider MRLLTLLGLLCGSVATPLGPKWPEPVFGRLASPGFPGEYANDQERRWTLTAPPGYRLRLYFTHFDLELSHLCEYDFVKLSSGAKVLATLCGQESTDTARAPGKDTFYSLGSSLDITFRSDYSNEKPFTGFEAFYAAEDIDECQVAPGEAPTCDHHCHNHLGGFYCSCRAGYVLHRNKRTCSEQSL, for which the “effect of a mutation on the interaction” value in assay [1] and in assay [2] was “decreasing interaction strength” each time.
